According to patent US20220023399A1, “BLOOD COMPONENT POTENTIATION OF LYTIC PROTEIN ANTI-BACTERIAL ACTIVITY AND METHODS AND USES THEREOF” (priority 2017, published 2022):
Values joined by “and” are separate entries in the source; they are usually repeats but may differ in a detail not shown here. Identical values can stand only once.

How the values were obtained:
[1] = test system: S. aureus JMI 1280 (MRSA); experiment: Checkerboard assay, additional MRSA strains; type: cell-based; details: paired agent not given
[2] = clinical grade, recombinant from E. coli; cited from earlier work
[3] = test system: S. aureus JMI 227 (MRSA); experiment: Checkerboard assay, additional MRSA strains; type: cell-based; details: paired agent not given
[4] = test system: S. aureus NRS 271 (MRSA, LRSA); experiment: Checkerboard assay, additional MRSA strains; type: cell-based; details: paired agent not given
[5] = test system: S. aureus strain MW2; experiment: MIC by broth microdilution in human blood matrices and animal sera; type: cell-based; details: for PlySs2/CF-301 MIC: different lots
Method: FIG. 5 provides PlySs2 (CF-301) MIC distribution for S. aureus MW2 in different human blood matrices. […] Each sample is described in Supplementary Table 1. The MICs are plotted on the x axis, and the numbers of patient samples with particular MICs are plotted on the y axis.
To understand whether variation in the sources of human blood-derived matrices may impact activity, PlySs2 (CF-301) MICs were determined using an array of 62 different pooled and individual human donor samples of whole blood, serum and plasma from different commercial sources with variations in age, sex, blood type, and type of anticoagulant used. […] Histograms showing MIC frequencies for each of the different matrices indicate that activity in whole blood and serum is equivalent, while activity in plasma differs by ˜1-log 2 dilution (FIG. 5). Overall, the enhancer effect was not impacted by variations in the age, sex, and blood type of individual or pooled donors or by the use of sodium citrate or sodium heparin as anticoagulants (TABLE 3). The effect was also observed in complement-inactivate media, complement preserved media, and was equivalent in at least 3 different matched sets of human blood, serum and plasma fractions, while delipidated serum was not equivalent.
The impact of sample variation on PlySs2 (CF-301) activity in the serum of different animal species was also examined.

[6] = test system: methicillin-resistant S. aureus (MRSA) strain MW2; experiment: Time-kill assay in blood matrices and MHB; type: cell-based
[7] = test system: S. aureus (strain not given); experiment: MIC assay in supplemented media (recapitulation of blood effect; delipidated serum with fatty acids); type: cell-based
[8] = test system: S. aureus CAIRD 456 (MRSA); experiment: Checkerboard assay, additional MRSA strains; type: cell-based; details: paired agent not given
[9] = test system: 171 clinical S. aureus isolates (MSSA, MRSA, vancomycin-, linezolid-, daptomycin-resistant); experiment: MIC by broth microdilution in CAMHB vs human serum, 171 clinical isolates
[10] = test system: MRSA strain MW2; experiment: Rat infective endocarditis model; type: in vivo, Sprague-Dawley rats
[11] = test system: S. aureus JMI 4789 (MRSA); experiment: Checkerboard assay, additional MRSA strains; type: cell-based; details: paired agent not given
[12] = test system: S. aureus (strain not given); experiment: MIC analysis of various lysins, chimeric lysins and antibiotics in MHB and human serum; type: cell-based; details: Table 2
[13] = test system: S. aureus strain MW2; experiment: Lytic assay (loss of optical density) and specific activity
[14] = test system: S. aureus strain MW2; experiment: Synergy time-kill assay; type: cell-based; details: human serum
[15] = test system: S. aureus NRS 100 (MRSA); experiment: Checkerboard assay, additional MRSA strains; type: cell-based; details: paired agent not given
[16] = test system: S. aureus (strain not given); experiment: MIC analysis of various lysins, chimeric lysins and antibiotics in MHB and human serum; type: cell-based; details: Table 14 (Example 2)
Method: To further evaluate the binding domain relevance to the serum component effect, various chimerics were constructed by replacing or swapping out one binding domain for another. Chimeric lysins having the Sal1 CHAP catalytic domain with ClyS binding domain, PlySs2 (CF-301) binding domain, or lysostaphin binding domain were assayed for MIC using MHB versus human serum. the results are depicted below in TABLE 14.

[17] = test system: MRSA strain MW2; experiment: Rabbit infective endocarditis model; type: in vivo, New Zealand White Rabbits; details: rabbit; total dose ≥0.09 mg/kg PlySs2 (CF-301) in addition to DAP below the HTD equivalent
[18] = medium head missing (human serum)
[19] = human whole blood (n=13), serum (n=33) and plasma (n=15) samples

B1: PlySs2 (CF-301): antistaphylococcal lysin from a Streptococcus suis prophage; N-terminal CHAP domain, C-terminal SH3-type binding domain; SEQ ID NO:3 (protein, listed as Streptococcus suis)
chain: MTTVNEALNNVRAQVGSGVSVGNGECYALASWYERMISPDATVGLGAGVGWVSGAIGDTISAKNIGSSYNWQANGWTVSTSGPFKAGQIVTLGATPGNPYGHVVIVEAVDGDRLTILEQNYGGKRYPVRNYYSAASYRQQVVHYITPPGTVAQSAPNLAGSRSYRETGTMTVTVDALNVRRAPNTSGEIVAVYKRGESFDYDTVIIDVNGYVWVSYIGGSGKRNYVATGATKDGKRFGNAWGTFK
ΣFICavg ([1]; CAMHB): 0.57
ΣFICmin ([1]; CAMHB): 0.5
ΣFICavg [1, 18]: 0.29
ΣFICmin [1, 18]: 0.25
pH range over which active [2]: 6-9.7 pH
temperature range over which active [2]: 16-55 °C
ΣFICavg ([3]; CAMHB): 0.64
ΣFICmin ([3]; CAMHB): 0.5
ΣFICavg [3, 18]: 0.29
ΣFICmin [3, 18]: 0.25
ΣFICavg ([4]; CAMHB): 0.5
ΣFICmin ([4]; CAMHB): 0.38
ΣFICavg [4, 18]: 0.39
ΣFICmin [4, 18]: 0.25
MIC ([5]; AST medium): ^$$MIC AST medium: 0.5 μg/mL
PlySs2/CF-301 MIC ([5]; dog serum (undiluted)): 1 µg/mL and 0.5 µg/mL
MIC ([5]; human serum, delipidized, pooled lots): 64
MIC90 [5, 19]: 1 µg/mL
MIC Range [5, 19]: 0.5 to 2 µg/mL
PlySs2/CF-301 MIC ([5]; mouse serum (undiluted)): 32 µg/mL and 64 µg/mL
PlySs2/CF-301 MIC ([5]; rabbit serum (undiluted)): 1 µg/mL
PlySs2/CF-301 MIC ([5]; rat serum (undiluted)): 8 µg/mL
minimum sterilizing concentration ([6]; MHB): 320 µg/mL
minimum sterilizing concentration ([6]; all human blood matrices (whole blood, serum, plasma), sterilizing by 24 hours): 3.2 µg/mL
sterilizing concentration ([6]; calf serum): 32 µg/mL
sterilizing concentration ([6]; dog serum): 3.2 µg/mL
sterilizing concentration ([6]; mouse serum): > 320 µg/mL
sterilizing concentration ([6]; rabbit serum): 3.2 µg/mL
sterilizing concentration ([6]; rat serum): 32 µg/mL
difference in sterilizing activity/potency, blood compared to MHB ([6]; strain MW2, human blood matrices vs MHB): 100 fold
Fold decrease in MIC ([7]; 50% MHB/50% human serum (heat inactivated) + HSA, 40 mg/mL): 4
Fold decrease in MIC ([7]; 50% MHB/50% human serum (heat inactivated) + HuLYZ, 10 μg/mL): 2
Fold decrease in MIC ([7]; 50% MHB/50% human serum (heat inactivated) + HuLYZ, 10 μg/mL + HSA 40 mg/mL): 16
Fold decrease in MIC ([7]; 50% MHB/50% human serum (heat inactivated) + MouseSA, 40 mg/mL): 1
Fold decrease in MIC ([7]; 50% MHB/50% human serum (heat inactivated) + RabSA, 40 mg/mL): 4
Fold decrease in MIC ([7]; 50% MHB/50% human serum (heat inactivated) + RatSA, 40 mg/mL): 2
Fold decrease in MIC ([7]; MHB supplemented with HSA, 40 mg/mL): 8
Fold decrease in MIC ([7]; MHB supplemented with HuLYZ, 10 μg/mL): 2
Fold decrease in MIC ([7]; MHB supplemented with HuLYZ, 10 μg/mL + HSA 40 mg/mL): 16
Fold decrease in MIC ([7]; MHB supplemented with RabSA, 40 mg/mL): 8
Fold decrease in CF-301 MIC compared to media alone ([7]; delipidated human serum + Oleate (0.625 mg/mL)): 8
Fold decrease in CF-301 MIC compared to media alone ([7]; delipidated human serum + Palmitate (0.625 mg/mL)): 16
Fold decrease in CF-301 MIC compared to media alone ([7]; delipidated human serum + Palmitate + Oleate): 16
ΣFICavg ([8]; CAMHB): 0.75
ΣFICmin ([8]; CAMHB): 0.5
ΣFICavg [8, 18]: 0.44
ΣFICmin [8, 18]: 0.38
MIC Range ([9]; MRSA (N 75), CAMHB): 2-128
MIC Range ([9]; MRSA (N 75), human serum): 0.25-2
MIC Range ([9]; MSSA (N 74), CAMHB): 8-32
MIC Range ([9]; MSSA (N 74), human serum): 0.25-1
MIC Range ([9]; Other (N 22: 12 vancomycin-, 5 linezolid-, 5 daptomycin-resistant strains), CAMHB): 0.5-32^
MIC Range ([9]; Other (N 22: 12 vancomycin-, 5 linezolid-, 5 daptomycin-resistant strains), human serum): 0.25-2
fold lower doses giving comparable efficacy in the rabbit vs the rat model ([10]; S. aureus infectious endocarditis models): 111 fold
estimate AUC/MIC ratio required to achieve maximal efficacy ([10]; rat IE model, 10 mg/kg in addition to DAP, 3 log10 drop relative to DAP alone): ≥ 0.87
drop in CFU/g in heart valve vegetation ([10]; rat, total dose 10 mg/kg PlySs2 (CF-301) in addition to HTD equivalent of DAP, relative to DAP alone): ~3 log 10
fold higher AUC exposure required for similar bactericidal effect in rats compared to rabbits ([10]; rats 10 mg/kg vs rabbits 0.18 mg/kg): > 20 fold
fold higher dose required for similar bactericidal effect in rats compared to rabbits ([10]; rats 10 mg/kg vs rabbits 0.18 mg/kg, in addition to DAP): ~50 fold and > 50 fold
ΣFICavg ([11]; CAMHB): 0.64
ΣFICmin ([11]; CAMHB): 0.5
ΣFICavg [11, 18]: 0.29
ΣFICmin [11, 18]: 0.25
Minimal inhibitory concentration, MHB ([12]; MHB): 32 µg/mL
Fold decrease in MIC ([12]; human serum vs MHB): 32
Minimal inhibitory concentration, Human serum ([12]; human serum): 1 µg/mL
Fold increase in specific activity ([13]; supplement HuLYZ, 10 μg/mL): 9.8
Fold increase in specific activity ([13]; supplement rHSA, 4%): 17.8
Fold increase in specific activity ([13]; supplements rHSA, HuLYZ): 25
concentration of each agent in PlySs2 (CF-301) + lysostaphin combination sterilizing at 24 hours [14]: 0.005 µg/mL
minimum concentration demonstrating synergy with daptomycin [14]: 0.025 µg/mL
fold decrease in minimum sterilizing concentration vs single agent ([14]; in combination with DAP): 64 fold
ΣFICavg ([15]; CAMHB): 0.75
ΣFICmin ([15]; CAMHB): 0.5
ΣFICavg [15, 18]: 0.29
ΣFICmin [15, 18]: 0.25
Minimal inhibitory concentration, MHB ([16]; MHB): 32 µg/mL
Fold decrease in MIC ([16]; human serum vs MHB): 32
Minimal inhibitory concentration, Human serum ([16]; human serum): 1 µg/mL
decrease in bacterial densities as compared to DAP treatment alone [17]: 3 log 10
